Source: the supplement of paper PMC7877785
± gives the uncertainty stated by the source.

Experiment: self-splicing fitness, log relative to wild type (ln ratio); higher = more splicing; Tetrahymena group I intron in knt gene, E. coli kanamycin selection, DiMSum; sequences stand for … in CUCUCU…GGAGGGAAAAGUUAUCAGGCAUGCACCUGGUAGCUAGUCUUUAAACCAAUAGAUUGCAUCGGUUUAAAAGGCAAGACCGUCAAAUUGCGGGAAAGGGGUCAACAGCCGUUCAGUACCAAGUCUCAGGGGAAACUUUGAGAUGGCCUUGCAAAGGGUAUGGUAAUAAGCUGACGGACAUGGUCCUAACCACGCAGCCAAGUCCUAAGUCAACAGAUCUUCUGUUGAUAUGGAUGCAGUUCACAGACUAAAUGUCGGUCGGGGAAGAUGUAUUCUUCUCAUAAGAUAUAGUCGGACCUCUCCUUAAUGGGAGCUAGCGGAUGAAGUGAUGCAACACUGGAGCCGCUGGGAACUAAUUUGUAUGCGAAAGUAUAUUGAUUAGUUUUGGAGUACUCGUGGUCG
Outline: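 The eight P1ex-region nucleotides of an intron in the knt kanamycin-resistance gene on pET-22b(+) were all randomised and the library put into E. coli BL21(DE3). Six replicate transformations were grown overnight at 37°C or 30°C on LB agar with or without 25 μg/mL kanamycin, together with 100 μg/mL carbenicillin, 50 μM IPTG and 0.2% rhamnose. Colonies were pooled and amplicon-sequenced on an Illumina HiSeq 2500. Fitness from DiMSum is the error-weighted combination of wild-type-normalised replicate fold changes, kanamycin over none.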

Sequence	self-splicing fitness (ln) (30 °C)	self-splicing fitness (ln) (37 °C)
UAUUAGCAAUAUUACGGAGG	-2.95 ± 0.28	-1.84 ± 0.34
CGUUAGCAAUAUUACGACUU	-1.03 ± 0.12	-0.0418 ± 0.17
UCUAAGCAAUAUUACGUAAA	-1.36 ± 0.097	-0.985 ± 0.12
CGGCAGCAAUAUUACGUAAG	-0.428 ± 0.059	0.0199 ± 0.075
CAAAAGCAAUAUUACGACCG	-0.0202 ± 0.1	-0.497 ± 0.13
UUUCAGCAAUAUUACGGGGA	-2.43 ± 0.24	-0.33 ± 0.16
AUUUAGCAAUAUUACGGGUU	–	-0.906 ± 0.21
AGUCAGCAAUAUUACGUCGU	-0.476 ± 0.049	-0.105 ± 0.064
GCUGAGCAAUAUUACGCCAG	-3.69 ± 0.25	-2.73 ± 0.41
UUCUAGCAAUAUUACGGCUC	-1.38 ± 0.14	-0.913 ± 0.2
ACAGAGCAAUAUUACGGUAU	-4.21 ± 0.36	-3.75 ± 0.26
CAACAGCAAUAUUACGUGGC	-3.17 ± 0.12	-2.81 ± 0.16
GCGUAGCAAUAUUACGCCGA	–	-2.28 ± 0.47
CACGAGCAAUAUUACGGUAU	-3.04 ± 0.23	-2.25 ± 0.22
UCCAAGCAAUAUUACGGGCC	-4.08 ± 0.32	-1.72 ± 0.25
AAAUAGCAAUAUUACGUUUU	-2.81 ± 0.11	-1.05 ± 0.099
CAGCAGCAAUAUUACGGUGU	-3.61 ± 0.15	-2.72 ± 0.17
AAAAAGCAAUAUUACGAUUC	-0.58 ± 0.091	-0.42 ± 0.12
CGUUAGCAAUAUUACGACUA	-1.12 ± 0.16	0.415 ± 0.14
UGGAAGCAAUAUUACGUCUG	-2.56 ± 0.25	-1.52 ± 0.2
CCUGAGCAAUAUUACGUUGG	-4.56 ± 0.29	-2.16 ± 0.16
CGGAAGCAAUAUUACGCCCA	-0.0821 ± 0.13	0.194 ± 0.2
GGCAAGCAAUAUUACGAUCC	-1.31 ± 0.22	-0.615 ± 0.27
CAAAAGCAAUAUUACGGAUG	-2.76 ± 0.11	-1.4 ± 0.14
UGAAAGCAAUAUUACGUAGU	-3.96 ± 0.26	-2.16 ± 0.18

Sequence	self-splicing fitness (ln) (30 °C)	self-splicing fitness (ln) (37 °C)
UGAGAGCAAUAUUACGUGGG	-2.83 ± 0.29	-1.38 ± 0.2
UUUUAGCAAUAUUACGCAGA	-0.713 ± 0.21	-0.506 ± 0.16
UGAUAGCAAUAUUACGAGGG	–	-2.38 ± 0.4
UCCCAGCAAUAUUACGAAGA	-0.348 ± 0.084	-0.266 ± 0.09
CGUAAGCAAUAUUACGGUGC	-2.65 ± 0.15	-3.7 ± 0.31
CGGAAGCAAUAUUACGUACG	-3.87 ± 0.24	-2.26 ± 0.21
AACAAGCAAUAUUACGGAAC	-3.32 ± 0.16	-1.73 ± 0.15
AGUUAGCAAUAUUACGAAUC	-2.57 ± 0.15	-2.03 ± 0.21
AGUUAGCAAUAUUACGUUAC	-3.26 ± 0.3	-2.69 ± 0.33
CUCCAGCAAUAUUACGUGGA	-3.5 ± 0.18	-2.7 ± 0.16
UAGGAGCAAUAUUACGGUGU	-3.4 ± 0.3	-2.9 ± 0.43
GCCAAGCAAUAUUACGCCAU	-3.22 ± 0.37	-3.45 ± 0.46
CCACAGCAAUAUUACGAAUC	-2.71 ± 0.18	-2.3 ± 0.3
UGAAAGCAAUAUUACGGUAG	-0.656 ± 0.06	-0.113 ± 0.088
GCGCAGCAAUAUUACGGUGA	-0.545 ± 0.066	-0.107 ± 0.086
UGCGAGCAAUAUUACGCUGC	-3.09 ± 0.25	-2.31 ± 0.29
GCCGAGCAAUAUUACGGACA	-0.642 ± 0.083	0.233 ± 0.082
CCAAAGCAAUAUUACGACUC	-2.53 ± 0.27	-2.03 ± 0.43
GUUCAGCAAUAUUACGGAAU	-2.45 ± 0.19	-2.46 ± 0.27
CAAAAGCAAUAUUACGAUGU	-2.32 ± 0.075	-1.66 ± 0.11
CCCUAGCAAUAUUACGAGUG	-3.51 ± 0.16	-2.28 ± 0.12
GGGGAGCAAUAUUACGCUCU	–	-2.19 ± 0.49
GACAAGCAAUAUUACGCGGG	-2.84 ± 0.095	-2.52 ± 0.14
UCCAAGCAAUAUUACGACCC	-3.47 ± 0.22	-1.98 ± 0.17
UCGUAGCAAUAUUACGAAUU	-3.74 ± 0.29	-3.57 ± 0.46

Sequence	self-splicing fitness (ln) (30 °C)	self-splicing fitness (ln) (37 °C)
CACCAGCAAUAUUACGGUUG	-2.85 ± 0.094	-1.04 ± 0.11
CCACAGCAAUAUUACGUGCU	-3.61 ± 0.17	-2.88 ± 0.17
GAAAAGCAAUAUUACGUUUC	-2.95 ± 0.17	-2.69 ± 0.25
CCCAAGCAAUAUUACGCUCC	–	-1.68 ± 0.42
AUCCAGCAAUAUUACGUCUU	-0.371 ± 0.065	0.716 ± 0.081
UAUCAGCAAUAUUACGACUA	0.123 ± 0.068	0.517 ± 0.095
CACUAGCAAUAUUACGGGGU	-3.32 ± 0.19	-2.37 ± 0.2
CGGGAGCAAUAUUACGUAAG	-1.46 ± 0.17	-0.321 ± 0.18
UGCGAGCAAUAUUACGCAGA	-3.13 ± 0.37	-1.84 ± 0.38
UGAAAGCAAUAUUACGUGUU	-3.21 ± 0.13	-1.44 ± 0.11
GGUAAGCAAUAUUACGUGCA	-0.586 ± 0.089	-0.233 ± 0.13
CAUUAGCAAUAUUACGGUGU	-3.92 ± 0.2	-3.76 ± 0.23
CAGGAGCAAUAUUACGAUGU	-4 ± 0.21	-2.91 ± 0.17
CGGUAGCAAUAUUACGUUGG	-1.26 ± 0.091	-0.39 ± 0.084
AGGCAGCAAUAUUACGCCAA	-0.987 ± 0.25	-0.179 ± 0.25
AGAGAGCAAUAUUACGAGUA	–	-2.01 ± 0.45
AUCAAGCAAUAUUACGCCUC	-2.77 ± 0.23	-1.6 ± 0.21
GUCUAGCAAUAUUACGGAGC	-1.04 ± 0.15	-1.02 ± 0.18
CCCAAGCAAUAUUACGCAUU	-3.82 ± 0.2	-2.04 ± 0.19
UUCAAGCAAUAUUACGGCCG	-0.747 ± 0.14	0.0541 ± 0.16
CCGGAGCAAUAUUACGGCCG	-2.44 ± 0.26	-0.644 ± 0.21
CUGUAGCAAUAUUACGGGCU	-4.31 ± 0.3	-3.2 ± 0.29
CAUAAGCAAUAUUACGAACC	–	-1.26 ± 0.35
CUUCAGCAAUAUUACGCUGC	–	-1.65 ± 0.18
GGUUAGCAAUAUUACGGCGU	-0.725 ± 0.1	0.137 ± 0.13

Sequence	self-splicing fitness (ln) (30 °C)	self-splicing fitness (ln) (37 °C)
GCGUAGCAAUAUUACGACGC	-3.7 ± 0.39	–
CACCAGCAAUAUUACGAGCA	-3.54 ± 0.16	-1.55 ± 0.13
AGACAGCAAUAUUACGAGGU	-3.46 ± 0.16	-1.87 ± 0.13
CCAAAGCAAUAUUACGAGAA	-3.52 ± 0.44	-3 ± 0.35
GGACAGCAAUAUUACGCAGU	-4.28 ± 0.36	-1.5 ± 0.24
UAGAAGCAAUAUUACGUUGG	-2.54 ± 0.14	-1.55 ± 0.14
ACCUAGCAAUAUUACGGGAU	-2.07 ± 0.1	-0.904 ± 0.1
AUUCAGCAAUAUUACGGGUU	-2.8 ± 0.17	-1.75 ± 0.16
CUGUAGCAAUAUUACGGGCG	-1.86 ± 0.09	-0.334 ± 0.11
AAAGAGCAAUAUUACGAACU	-1.41 ± 0.18	-1.14 ± 0.27
CGGCAGCAAUAUUACGCAGU	-3.02 ± 0.17	-2.07 ± 0.29
GAUGAGCAAUAUUACGCAGC	–	-1.61 ± 0.41
CACAAGCAAUAUUACGAAGG	-1.45 ± 0.096	-0.993 ± 0.12
AUAUAGCAAUAUUACGUAUU	-2.94 ± 0.22	-1.63 ± 0.21
GGUCAGCAAUAUUACGGGAG	-3.38 ± 0.22	-1.45 ± 0.12
UGAAAGCAAUAUUACGAAAG	-2.61 ± 0.15	-0.866 ± 0.16
UCGUAGCAAUAUUACGUCGU	-4.26 ± 0.32	-1.25 ± 0.18
AAAGAGCAAUAUUACGUUAA	-3.16 ± 0.25	-2.28 ± 0.28
UCGGAGCAAUAUUACGCUAC	-2.11 ± 0.34	–
UCGCAGCAAUAUUACGACAU	-3.604 ± 0.025	-2.56 ± 0.037
AUGCAGCAAUAUUACGAGAC	-3.17 ± 0.29	-2.59 ± 0.33
CGCAAGCAAUAUUACGCUAG	-2.46 ± 0.16	-2.89 ± 0.2
CUUUAGCAAUAUUACGACAU	-3.762 ± 0.032	-2.81 ± 0.043
